From publication doi:10.1101/2022.06.29.498065v2 come the findings set out here.

The series has as its system Nc1ncnc2c1ncn2[C@@H]1O[C@H](COP(=O)(O)OP(=O)(O)OP(=O)(O)O)[C@@H](O)[C@H]1O. As to the kind of experiment: purified protein. To be noted: pH 7.0; 30.0 °C.

With “KFDV NS5 (Kyasanur Forest disease virus)”, the Km turned out to be 42.15 ± 5.81 µM.
